# Laboratory results published in the supplement of paper PMC7877785.
# ± gives the uncertainty stated by the source.
# Experiment: self-splicing fitness, log relative to wild type (ln ratio); higher = more splicing; Tetrahymena group I intron in knt gene, E. coli kanamycin selection, DiMSum; sequences stand for … in CUCUCU…GGAGGGAAAAGUUAUCAGGCAUGCACCUGGUAGCUAGUCUUUAAACCAAUAGAUUGCAUCGGUUUAAAAGGCAAGACCGUCAAAUUGCGGGAAAGGGGUCAACAGCCGUUCAGUACCAAGUCUCAGGGGAAACUUUGAGAUGGCCUUGCAAAGGGUAUGGUAAUAAGCUGACGGACAUGGUCCUAACCACGCAGCCAAGUCCUAAGUCAACAGAUCUUCUGUUGAUAUGGAUGCAGUUCACAGACUAAAUGUCGGUCGGGGAAGAUGUAUUCUUCUCAUAAGAUAUAGUCGGACCUCUCCUUAAUGGGAGCUAGCGGAUGAAGUGAUGCAACACUGGAGCCGCUGGGAACUAAUUUGUAUGCGAAAGUAUAUUGAUUAGUUUUGGAGUACUCGUGGUCG
# Procedure, shortened: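 Library with all eight P1ex-region intron nucleotides randomised, intron inside the knt kanamycin-resistance gene on pET-22b(+), in E. coli BL21(DE3). Cells grew overnight at 37°C or 30°C on LB agar with or without 25 μg/mL kanamycin (plus 100 μg/mL carbenicillin, 50 μM IPTG, 0.2% rhamnose), in six replicate transformations. Pooled colonies were amplicon-sequenced on Illumina HiSeq 2500. DiMSum fitness is the error-weighted combination of wild-type-normalised replicate fold changes, kanamycin versus none.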
Sequence,self-splicing fitness (ln) (30 °C),self-splicing fitness (ln) (37 °C)
ACCAAGCAAUAUUACGGCUG,-1.55 ± 0.068,-0.288 ± 0.081
CACCAGCAAUAUUACGAACU,-3.98 ± 0.2,-2.05 ± 0.17
GCCAAGCAAUAUUACGCGUC,-1.31 ± 0.068,-1.71 ± 0.088
GAACAGCAAUAUUACGGAGA,-1.55 ± 0.19,-1.88 ± 0.13
CUUUAGCAAUAUUACGUUCU,-3.16 ± 0.25,-2.78 ± 0.29
UGAAAGCAAUAUUACGUACG,-0.177 ± 0.11,0.639 ± 0.13
CGCCAGCAAUAUUACGUUAA,-3.31 ± 0.22,-2.57 ± 0.17
UCUAAGCAAUAUUACGGUCA,-1.31 ± 0.12,-0.792 ± 0.12
UAACAGCAAUAUUACGGAUU,-3.02 ± 0.12,-0.666 ± 0.094
GUCCAGCAAUAUUACGUUUA,-0.851 ± 0.08,-0.0697 ± 0.076
UGCCAGCAAUAUUACGCAUC,-3.52 ± 0.25,-2.2 ± 0.2
UUCUAGCAAUAUUACGGUUC,-2.74 ± 0.26,-2.44 ± 0.27
GCUAAGCAAUAUUACGCCAC,-1.43 ± 0.35,-2 ± 0.38
UACUAGCAAUAUUACGGUCU,-1.3 ± 0.094,-0.2 ± 0.13
GUGUAGCAAUAUUACGAGAG,–,-1.52 ± 0.47
UACAAGCAAUAUUACGAGAG,-3.24 ± 0.17,-2.65 ± 0.18
UAUGAGCAAUAUUACGUUCA,-1.29 ± 0.2,-0.652 ± 0.22
GAAUAGCAAUAUUACGUUGA,-2.6 ± 0.13,-0.487 ± 0.09
AGGGAGCAAUAUUACGGAGC,-2.84 ± 0.38,-1.95 ± 0.48
GUAAAGCAAUAUUACGGCUC,-0.0413 ± 0.071,0.298 ± 0.1
AAGUAGCAAUAUUACGCCGA,-1.53 ± 0.16,-1.39 ± 0.17
GACAAGCAAUAUUACGAAGG,-4.06 ± 0.19,-2.27 ± 0.19
UAAAAGCAAUAUUACGUAUG,-1.07 ± 0.078,-0.324 ± 0.095
UACGAGCAAUAUUACGAAUU,-4.2 ± 0.46,-3.21 ± 0.39

Sequence,self-splicing fitness (ln) (30 °C),self-splicing fitness (ln) (37 °C)
AACCAGCAAUAUUACGUUUU,-2.11 ± 0.057,-1.27 ± 0.065
CGCUAGCAAUAUUACGAGUU,-2.49 ± 0.1,-2.38 ± 0.15
AGCCAGCAAUAUUACGCUAG,-2.97 ± 0.25,-2.81 ± 0.25
GCGUAGCAAUAUUACGAAAU,-2.16 ± 0.29,-0.358 ± 0.24
AACAAGCAAUAUUACGAACG,-1.33 ± 0.11,-0.418 ± 0.13
ACAAAGCAAUAUUACGCCCC,-0.67 ± 0.27,-0.241 ± 0.26
ACUCAGCAAUAUUACGCGCC,-1.17 ± 0.16,-0.503 ± 0.17
GAUGAGCAAUAUUACGGGCG,-3.36 ± 0.39,-1.45 ± 0.26
UUCAAGCAAUAUUACGGGAA,-1.32 ± 0.11,-0.286 ± 0.094
GCGCAGCAAUAUUACGUAAU,-0.192 ± 0.061,0.31 ± 0.07
UUCAAGCAAUAUUACGUCAC,-3.57 ± 0.34,-2.42 ± 0.39
CAAGAGCAAUAUUACGAUCG,-0.79 ± 0.071,0.562 ± 0.1
UUGUAGCAAUAUUACGUCGU,-3.78 ± 0.26,-2.44 ± 0.2
UGCCAGCAAUAUUACGACAU,-3.366 ± 0.021,-1.9 ± 0.035
GGCAAGCAAUAUUACGCGAA,-0.953 ± 0.12,0.499 ± 0.13
UCCAAGCAAUAUUACGGUUA,-0.451 ± 0.066,0.0448 ± 0.068
CAAUAGCAAUAUUACGUUAC,–,-3.23 ± 0.39
UAUGAGCAAUAUUACGAUAA,-3.74 ± 0.33,-2.74 ± 0.27
UAGUAGCAAUAUUACGCGCU,-1.46 ± 0.16,-0.161 ± 0.16
CAGUAGCAAUAUUACGGCCU,-3.02 ± 0.2,-1.67 ± 0.17
AGAUAGCAAUAUUACGCGAU,-2.53 ± 0.25,-2.15 ± 0.27
AUGCAGCAAUAUUACGAGGU,-3.04 ± 0.16,-2.27 ± 0.13
CACGAGCAAUAUUACGGGGA,-3.15 ± 0.12,-2.51 ± 0.13
UACAAGCAAUAUUACGUCAU,-3.94 ± 0.16,-1.05 ± 0.096

Sequence,self-splicing fitness (ln) (30 °C),self-splicing fitness (ln) (37 °C)
GGCCAGCAAUAUUACGGAUA,-1.41 ± 0.12,-1.02 ± 0.14
CUCAAGCAAUAUUACGCGAC,-1.93 ± 0.16,-1.45 ± 0.19
ACUCAGCAAUAUUACGGCGC,-0.183 ± 0.068,0.000506 ± 0.097
UCAGAGCAAUAUUACGCGAG,-2.24 ± 0.12,-1.06 ± 0.13
UCUGAGCAAUAUUACGGGAG,-4.4 ± 0.36,-2.65 ± 0.29
CUACAGCAAUAUUACGGCAG,-1.07 ± 0.063,-0.452 ± 0.088
GAAGAGCAAUAUUACGGGAG,-3.15 ± 0.19,-2.19 ± 0.23
UGUCAGCAAUAUUACGUAUU,-1.77 ± 0.071,-0.932 ± 0.081
GACGAGCAAUAUUACGGCAA,-1.91 ± 0.2,-0.607 ± 0.14
CCCUAGCAAUAUUACGAUAG,-2.74 ± 0.2,-2.39 ± 0.27
ACGCAGCAAUAUUACGUUAA,-3.4 ± 0.31,-2.88 ± 0.24
CACAAGCAAUAUUACGUACC,-3.9 ± 0.21,-1.36 ± 0.14
CGGCAGCAAUAUUACGAUGU,-3.85 ± 0.31,-3.14 ± 0.35
GUGUAGCAAUAUUACGCACG,-3.57 ± 0.27,-2.25 ± 0.22
GGCAAGCAAUAUUACGCAAG,-4.16 ± 0.36,-2.04 ± 0.23
CAGUAGCAAUAUUACGUGGA,-2.9 ± 0.26,-3.63 ± 0.42
GCGGAGCAAUAUUACGUAGC,-1.91 ± 0.28,-2.38 ± 0.41
UGCGAGCAAUAUUACGCUUC,-3.96 ± 0.39,-3.67 ± 0.39
UGUCAGCAAUAUUACGGGUU,-2.31 ± 0.1,-1.07 ± 0.11
GGUCAGCAAUAUUACGUAGC,-0.572 ± 0.067,-0.268 ± 0.081
AACAAGCAAUAUUACGGUCC,-1.36 ± 0.063,-0.282 ± 0.072
UGGUAGCAAUAUUACGGAUA,-1.92 ± 0.24,-2.72 ± 0.27
UGUGAGCAAUAUUACGGUGG,-2.64 ± 0.19,-3.01 ± 0.35
AGGAAGCAAUAUUACGGACU,-0.293 ± 0.11,-0.668 ± 0.097

Sequence,self-splicing fitness (ln) (30 °C),self-splicing fitness (ln) (37 °C)
AGGCAGCAAUAUUACGACAG,-1.61 ± 0.18,-1.54 ± 0.23
UAGUAGCAAUAUUACGCGCG,-0.283 ± 0.077,-0.281 ± 0.1
GUUCAGCAAUAUUACGCACC,-1.33 ± 0.13,-0.136 ± 0.21
AUGUAGCAAUAUUACGGCGA,-0.117 ± 0.088,-0.00452 ± 0.11
GAGGAGCAAUAUUACGUCUG,-1.73 ± 0.15,-1.07 ± 0.18
UCGGAGCAAUAUUACGUUGU,-3.7 ± 0.22,-1.93 ± 0.21
CCGGAGCAAUAUUACGGACA,-2.43 ± 0.42,-2.97 ± 0.47
UGGAAGCAAUAUUACGAUGU,-1.75 ± 0.21,-2 ± 0.22
GGUGAGCAAUAUUACGAUGC,-1.6 ± 0.13,-0.514 ± 0.19
UGCAAGCAAUAUUACGACGA,-0.804 ± 0.074,0.648 ± 0.087
UCCAAGCAAUAUUACGUAGC,-3.38 ± 0.14,-1.38 ± 0.11
CAUAAGCAAUAUUACGCCGC,-2.82 ± 0.38,-1.59 ± 0.47
AAUAAGCAAUAUUACGCCAA,-2.17 ± 0.21,-1.46 ± 0.18
UAGAAGCAAUAUUACGCCCG,-0.762 ± 0.18,0.487 ± 0.23
CCCUAGCAAUAUUACGCUCC,–,-2.13 ± 0.4
AUCGAGCAAUAUUACGCUGA,–,-1.82 ± 0.32
UGUAAGCAAUAUUACGAACU,-0.349 ± 0.12,-0.682 ± 0.12
AUCGAGCAAUAUUACGGUUU,-2.08 ± 0.091,-1.71 ± 0.099
AUUAAGCAAUAUUACGAGUA,-2.07 ± 0.16,-1.49 ± 0.13
CCCCAGCAAUAUUACGCUGU,-4 ± 0.21,-3.09 ± 0.18
GUCAAGCAAUAUUACGUAAA,-0.78 ± 0.058,-0.463 ± 0.07
ACGUAGCAAUAUUACGACCU,-0.0641 ± 0.099,0.527 ± 0.11
GAAAAGCAAUAUUACGACGG,-2.29 ± 0.17,-2.4 ± 0.32
AGCAAGCAAUAUUACGCUCA,-2.66 ± 0.18,-1.69 ± 0.15
